Measurements: patent US20150344570A1 (published 2015)

T1: FcγRIIa H (human, UniProt P12318 34-217)
T1 construct: extracellular domain; also called FcγRIIa type H; 2aH
T1 sequence (looked up): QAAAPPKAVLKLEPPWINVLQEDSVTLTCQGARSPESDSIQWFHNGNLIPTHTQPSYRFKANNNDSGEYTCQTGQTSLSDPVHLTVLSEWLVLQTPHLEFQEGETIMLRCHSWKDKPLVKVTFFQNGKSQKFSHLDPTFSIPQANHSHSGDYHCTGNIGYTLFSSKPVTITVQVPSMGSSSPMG

T2: FcγRIIb (human, UniProt P31994 43-217)
T2 construct: extracellular domain; also called 2b; FcgRIIb
T2 sequence (looked up): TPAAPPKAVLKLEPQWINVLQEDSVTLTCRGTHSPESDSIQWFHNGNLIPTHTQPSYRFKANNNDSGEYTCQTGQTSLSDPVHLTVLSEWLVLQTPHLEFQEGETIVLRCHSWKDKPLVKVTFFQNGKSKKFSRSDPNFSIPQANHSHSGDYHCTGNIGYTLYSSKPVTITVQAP

B1: GpH7-A5/GpH7-B3 variant E269_18N/GpL16-k0 (antibody, human IgG1, kappa)
heavy 1: not shown
heavy 2: not shown
light: DIVMTQSPLSLPVTPGEPASISCQASESLVHSNRNTYLHWYLQKPGQSPQLLIYKVSNRFSGVPDRFSGSGSGTDFTLKISRVEAEDVGVYYCSQNTHVPPTFGQGTKVEIERTVAAPSVFIFPPSDEQLKSGTASVVCLLNNFYPREAKVQWKVDNALQSGNSQESVTEQDSKDSTYSLSSTLTLSKADYEKHKVYACEVTHQGLSSPVTKSFNRGEC
notes: Heterodimerized anti-glypican-3 IgG1 (He Ab); mutation in the B3 H chain only; also called He Ab
B2: GpH7-A5/GpH7-B3 variant Y300_06M/GpL16-k0 (antibody, human IgG1, kappa)
heavy 1: not shown
heavy 2: not shown
light: B1 light
notes: as for B1
B3: GpH7-A5/GpH7-B3 variant S298_14T/GpL16-k0 (antibody, human IgG1, kappa)
heavy 1: not shown
heavy 2: not shown
light: B1 light
notes: as for B1
B4: GpH7-A5/GpH7-B3 variant S298_20W/GpL16-k0 (antibody, human IgG1, kappa)
heavy 1: not shown
heavy 2: not shown
light: B1 light
notes: as for B1
B5: GpH7-A5/GpH7-B3 variant P271_15Y/GpL16-k0 (antibody, human IgG1, kappa)
heavy 1: not shown
heavy 2: not shown
light: B1 light
notes: as for B1
B6: GpH7-A5/GpH7-B3 variant S298_03V/GpL16-k0 (antibody, human IgG1, kappa)
heavy 1: not shown
heavy 2: not shown
light: B1 light
notes: as for B1
B7: GpH7-A5/GpH7-B3 variant Q295_05P/GpL16-k0 (antibody, human IgG1, kappa)
heavy 1: not shown
heavy 2: not shown
light: B1 light
notes: as for B1
B8: GpH7-A5/GpH7-B3 variant Q295_13S/GpL16-k0 (antibody, human IgG1, kappa)
heavy 1: not shown
heavy 2: not shown
light: B1 light
notes: as for B1
B9: GpH7-A5/GpH7-B3 variant S298_18N/GpL16-k0 (antibody, human IgG1, kappa)
heavy 1: not shown
heavy 2: not shown
light: B1 light
notes: as for B1
B10: GpH7-A5/GpH7-B3 variant P271_20W/GpL16-k0 (antibody, human IgG1, kappa)
heavy 1: not shown
heavy 2: not shown
light: B1 light
notes: as for B1
B11: GpH7-A5/GpH7-B3 variant Q295_12R/GpL16-k0 (antibody, human IgG1, kappa)
heavy 1: not shown
heavy 2: not shown
light: B1 light
notes: as for B1
B12: GpH7-A5/GpH7-B3 variant Y300_11K/GpL16-k0 (antibody, human IgG1, kappa)
heavy 1: not shown
heavy 2: not shown
light: B1 light
notes: as for B1
B13: GpH7-A5/GpH7-B3 variant Q295_07I/GpL16-k0 (antibody, human IgG1, kappa)
heavy 1: not shown
heavy 2: not shown
light: B1 light
notes: as for B1
B14: GpH7-A5/GpH7-B3 variant Y300_07I/GpL16-k0 (antibody, human IgG1, kappa)
heavy 1: not shown
heavy 2: not shown
light: B1 light
notes: as for B1
B15: GpH7-A5/GpH7-B3 variant E269_19Q/GpL16-k0 (antibody, human IgG1, kappa)
heavy 1: not shown
heavy 2: not shown
light: B1 light
notes: as for B1
B16: GpH7-A5/GpH7-B3 variant Q295_03V/GpL16-k0 (antibody, human IgG1, kappa)
heavy 1: not shown
heavy 2: not shown
light: B1 light
notes: as for B1
B17: GpH7-A5/GpH7-B3 variant Y300_08L/GpL16-k0 (antibody, human IgG1, kappa)
heavy 1: not shown
heavy 2: not shown
light: B1 light
notes: as for B1
B18: GpH7-A5/GpH7-B3 variant E269_20W/GpL16-k0 (antibody, human IgG1, kappa)
heavy 1: not shown
heavy 2: not shown
light: B1 light
notes: as for B1
B19: GpH7-A5/GpH7-B3 variant Y300_02A/GpL16-k0 (antibody, human IgG1, kappa)
heavy 1: not shown
heavy 2: not shown
light: B1 light
notes: as for B1
B20: GpH7-A5/GpH7-B3 variant Q295_11K/GpL16-k0 (antibody, human IgG1, kappa)
heavy 1: not shown
heavy 2: not shown
light: B1 light
notes: as for B1
B21: GpH7-A5/GpH7-B3 variant Q295_20W/GpL16-k0 (antibody, human IgG1, kappa)
heavy 1: not shown
heavy 2: not shown
light: B1 light
notes: as for B1
B22: GpH7-A5/GpH7-B3 variant S298_07I/GpL16-k0 (antibody, human IgG1, kappa)
heavy 1: not shown
heavy 2: not shown
light: B1 light
notes: as for B1
B23: GpH7-A5/GpH7-B3 variant S298_10E/GpL16-k0 (antibody, human IgG1, kappa)
heavy 1: not shown
heavy 2: not shown
light: B1 light
notes: as for B1
B24: GpH7-A5/GpH7-B3 variant S298_16H/GpL16-k0 (antibody, human IgG1, kappa)
heavy 1: not shown
heavy 2: not shown
light: B1 light
notes: as for B1
B25: GpH7-A5/GpH7-B3 variant Q295_16H/GpL16-k0 (antibody, human IgG1, kappa)
heavy 1: not shown
heavy 2: not shown
light: B1 light
notes: as for B1
B26: GpH7-A5/GpH7-B3 variant Y300_03V/GpL16-k0 (antibody, human IgG1, kappa)
heavy 1: not shown
heavy 2: not shown
light: B1 light
notes: as for B1
B27: GpH7-A5/GpH7-B3 variant Y300_01G/GpL16-k0 (antibody, human IgG1, kappa)
heavy 1: not shown
heavy 2: not shown
light: B1 light
notes: as for B1
B28: GpH7-A5/GpH7-B3 variant S298_19Q/GpL16-k0 (antibody, human IgG1, kappa)
heavy 1: not shown
heavy 2: not shown
light: B1 light
notes: as for B1
B29: GpH7-A5/GpH7-B3 variant L328_12R/GpL16-k0 (antibody, human IgG1, kappa)
heavy 1: not shown
heavy 2: not shown
light: B1 light
notes: Heterodimerized anti-glypican-3 IgG1; mutation in the GpH7-B3 chain only; also called He Ab
B30: GpH7-A5/GpH7-B3 variant L328_11K/GpL16-k0 (antibody, human IgG1, kappa)
heavy 1: not shown
heavy 2: not shown
light: B1 light
notes: as for B29
B31: GpH7-A5/GpH7-B3 variant A327_12R/GpL16-k0 (antibody, human IgG1, kappa)
heavy 1: not shown
heavy 2: not shown
light: B1 light
notes: as for B29

Target: T1, FcγRIIa H
Assay: ratio of He/Con_2aH to He/Con_2b (FcγRIIb); SPR

He_2aH/2b (IIaH/IIb ratio) | Binder
1.44 | B1
1.24 | B2
1.26 | B3
1.21 | B4
1.24 | B5
1.32 | B6
1.53 | B7
1.22 | B8
1.28 | B9
1.33 | B10
1.29 | B11
1.3 | B12
1.21 | B13
1.45 | B14
1.81 | B15
1.22 | B16
1.47 | B17
1.43 | B18
1.35 | B19
1.27 | B20
1.25 | B21
1.23 | B22
1.22 | B23
1.29 | B24
1.25 | B25
1.33 | B26
1.54 | B27
1.24 | B28

Target: T3, FcγRIIIa extracellular domain with C-terminal His tag (human, UniProt P08637 17-208)
T3 construct: extracellular domain; also called FcgRIIIa; 3a
T3 sequence (P08637 17-208): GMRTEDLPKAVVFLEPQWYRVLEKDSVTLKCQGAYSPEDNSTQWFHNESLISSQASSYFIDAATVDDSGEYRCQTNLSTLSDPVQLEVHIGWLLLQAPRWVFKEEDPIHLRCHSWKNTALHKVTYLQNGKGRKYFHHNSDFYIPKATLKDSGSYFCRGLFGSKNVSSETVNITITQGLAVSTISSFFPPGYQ
Assay: SPR (Biacore); He/Con_3a divided by He/Con_2b (FcγRIIIa against FcγRIIb)
Experimental: (§1) The heterodimerized antibodies He Abs in which one of the H chains was introduced with an alteration were assayed for their binding activities to each activating FcγR and inhibitory FcγR according to the method described in Example 4. […] The activating FcγRs in FIGS. 26, 27, 28, and 29 are FcγRIa, FcγRIIa (R), FcγRIIa (H), and FcγRIIIa, respectively.
(§2) Analysis of interaction between objective antibody and the FcγR was carried out using Biacore T100 (GE Healthcare). HBS-EP+ (GE Healthcare) was used as the running buffer, and the measurement temperature was set to 25° C. Chips produced by immobilizing the antigen peptide by the amine coupling method to a Series S Sencor Chip CM5 (GE Healthcare), or alternatively, chips produced by allowing preliminarily biotinylated antigen peptides to interact with and immobilize onto a Series S Sensor Chip SA (certified) (GE Healthcare) were used. Antibodies of interest were captured onto an antigen peptide-immobilized chip, and allowed to interact to each FcγR diluted with running buffer. To regenerate and repeatedly use the chip, the antibodies captured on the chip were washed off by reacting 10 mM glycine-HCl, pH 1.5.

He_3a/2b (IIIa/IIb) [ratio] | Binder
3.53 | B29
4.46 | B30
2.15 | B31

Target: T1, FcγRIIa H
Assay: SPR (Biacore), captured antibody, FcγR as analyte; GpH7-A5/GpH7-B3/GpL16-k0 = 100
Experimental: as §1, §2

He/Con_2aH (relative binding) [%] | Binder
64.4 | B1
105 | B2
98.5 | B3
49.9 | B4
64.6 | B5
85.1 | B6
103 | B7
69.4 | B8
61.6 | B9
77.4 | B10
84.1 | B11
66.9 | B12
102 | B13
108 | B14
80.2 | B15
92 | B16
108 | B17
60.9 | B18
93.5 | B19
89.4 | B20
55.6 | B21
86.9 | B22
58 | B23
82.1 | B24
78.6 | B25
98 | B26
74.4 | B27
91 | B28

Target: T2, FcγRIIb
Assay: as above
Experimental: as §1, §2

He/Con_2b (relative binding) [%] | Binder
44.8 | B1
84.3 | B2
77.9 | B3
41.1 | B4
52.3 | B5
64.5 | B6
67.5 | B7
56.9 | B8
48.1 | B9
58.1 | B10
65.2 | B11
51.6 | B12
84.3 | B13
74.5 | B14
44.3 | B15
75.7 | B16
73.6 | B17
42.5 | B18
69.2 | B19
70.4 | B20
44.4 | B21
70.6 | B22
47.6 | B23
63.5 | B24
62.7 | B25
73.9 | B26
48.4 | B27
73.3 | B28

Target: T3, FcγRIIIa extracellular domain with …
Assay: SPR (Biacore), antibody captured on antigen peptide chip, FcγR as analyte; GpH7-A5/GpH7-B3/GpL16-k0 = 100
Experimental: as §1, §2

He/Con_3a (relative binding activity) | Binder
32.7 % of control | B29
33.5 % of control | B30
19.3 % of control | B31
